Experimental data from the DeepSol protein solubility set.

Experiment: soluble on expression in E. coli; label from the status in PepcDB or PDB records

MKPLLLSRRTHQKPGNYASGRGFPSSTRYIEDVQWLLKEFEPFVRVSADLPFVKARDIALIRSELEKKKPASLEVCLLEHHHHHH
soluble on expression in E. coli: not soluble

SFTMAQQSGGGLTRGSFPEGFVFGTASAAYQYEGAVKEDGRGQTIWDTFAHTFGKITDFSNADVAVDQYHRFEEDIQLMADMGMDAYRFSIAWSRIYPNGVGQVNQAGIDHYNKLIDALLAKGIQPYVTLYHWDLPQALEDKYKGWLDRQIVDDFAAYAETCFREFGDRVKHWITLNEPHTVAIQGYDAGLQAPGRCSVLLHLYCKAGNSGTEPYVVAHHFILAHAAAASIYRTKYKATQNGQLGIAFDVMWFEPMSNTTIDIEAAKRAQEFQLGWFADPFFFGDYPATMRARVGERLPRFTADEAAVVKGALDFVGINHYTTYYTRHNNTNIIGTLLNNTLADTGTVSLPFKNGKPIGDRANSIWLYIVPRGMRSLMNYVKERYNSPPVYITENGMDDSNNPFISIKDALKDSKRIKYHNDYLTNLAASIKEDGCDVRGYFAWSLLDNWEWAAGYSSRFGLYFVDYKDNLKRYPKNSVQWFKALLKT
soluble on expression in E. coli: soluble

MIRTVMDFKFVLRLLEANQFENEVVEYKKNNKDFIVLGKNISALSNTAALLGIDKAYIIFGIEDGTLNIVGTNFKPKQEKKGNEELESWLHKVLKPNIEFKIHEITEKEIRLVVFEIEATKISPIKFEEKAYIRIGSNRKELDKYPEKEKKLWQVLSGFSFENEIAKSNLNIQDIYDLLDYSKCFDMLDISYDNYSSDEYIIEKLIEHGLVKNLNDSFAITNLGAILFAKDLTKFKGLNRKRIRFIRYQGKNKIHTLEELEGRKGYAIGFQGLISYIMQYVPKNEVIENAIRKDTTLYPEIAIRELVANAIIHQDFTINGRNPMIEMYSDRIEITNNGKSLIDIKRLIDMPSKSRNDKLANLMRIMGICEERGSGVDKVIDSVEAYQLPAPDFINNEDYFQAILFSHMPLEDMTKQDRIRATYQHCCLKWASREAMTNASLRARFKIGDKQHSKASKIISDTLEAGLIKQQDPENKSTKHVKYVPFFV
soluble on expression in E. coli: not soluble

MSLGKALEIDLGNRLQALDIDGPTREILRECRPIIEKIIDEAVLDSYNKILAYPEVRDAYAGMKIEDACQAQRTHWIDDVFAGTFAEEQIRNGVEIFSKRQRQGLSLRWYFCFYSNILRCMIAAVYPQYRRDKEKLQRVIGALTRTVMFELEIASTAYMHSAQEQVAVALNDAAGQFEREGHHHHHH
soluble on expression in E. coli: soluble

MGYHGGTMRVLGRRIYWRWYGEVLLEGGVTLRMTGDVAKWLRPGDRVRLRTEFKKPVLGFDEYALEAVFPLWPPFAKTLEHVRESPFGGKAYRYRLKVREATYEGDYEAIAELEQFHYASEKEVVALWVCTQCQKTLPANARPLCDCGGEARLKEIRGSTPASRFLVLELAERLPFEPRILGYLRLDPPIPRMHRRTPEGVERDIRERIFPRDWFHPTYEGGADWQRALDRVNTAAARIARVVVHPDYRSEGFGALLVRVALEWAKERGAPEARREKHLVYTIAQMARYHPFFEKVGFRYLFDTASGRPVLFYPLTEEAEAHLERFLREDPYAKAHGGRLYKPRFGRVPGLPGPIRLRGVHKAYRSHLDLEGLSREVQEALLAFGVKARVVERAVLRGASLEIPPGSLVVLAGASGAGKTTLLRLLLGEAPDAGEVAVPPGRRVAYIPGEREVDLGEDPILEAVYRRLKDVGAAIEVLNRVGLSDAVLYRARPHELSTGQRERFRLALLLAERPDLLLIDEFAAHLDVPTARRVALGLGKLCREAGVTLVAATHRPEVVAALDPDLLVYVGYGGLTTVPRRGPRT
soluble on expression in E. coli: soluble

MVNKVLVANRGEIAVRIIRACKELGIPTVAIYNEVESTARHVKLADEAYMIGTDPLDTYLNKQRIINLALEVGADAIHPGYGFLAENAEFAKMCEEAGITFIGPHWKVIELMGDKARSKEVMKKAGVPVVPGSDGVLKSLEEAKALAREIGYPVLLKATAGGGGRGIRICRNEEELVKNYEQASREAEKAFGRGDLLLEKFIENPKHIEYQVLGDKHGNVIHLGERDCSIQRRNQKLVEIAPSLILTPEKREYYGNIVTKAAKEIGYYNAGTMEFIADQEGNLYFIEMNTRIQVEHPVSEMVTGIDIVKWQIKIAAGEPLTIKQEDVKFNGYAIECRINAEDPKKNFAPSTRVIERYYVPGGFGIRVEHAAARGFEVTPYYDSMIAKLITWAPTWDEAVERMRAALETYEITGVKTTIPLLINIMKEKDFKAGKFTTKYLEEHPEVFEYEE
soluble on expression in E. coli: soluble

STFVAKDGTQIYFKDWGSGKPVLFSHGWLLDADMWEYQMEYLSSRGYRTIAFDRRGFGRSDQPWTGNDYDTFADDIAQLIEHLDLKEVTLVGFSMGGGDVARYIARHGSARVAGLVLLGAVTPLFGQKPDYPQGVPLDVFARFKTELLKDRAQFISDFNAPFYGINKGQVVSQGVQTQTLQIALLASLKATVDCVTAFAETDFRPDMAKIDVPTLVIHGDGDQIVPFETTGKVAAELIKGAELKVYKDAPHGFAVTHAQQLNEDLLAFLKRGSHHHHHH
soluble on expression in E. coli: soluble

MKDVILVIYSLIKMTKLRSCPLDDCNSSETYFQLDKHLKNEHDGLVLLMVDPQSQWRCEQMKRHVEYVDLMSATEIPHIAEVVHHQLPYIDTLIIFRCLS
soluble on expression in E. coli: soluble

GHRIARKVTDVWEITGPSSEDAIEVARWNPFTKEHEHFMEKSVAIAEIGKLVGLTKDEVLAEIERRKLVLLWMAKSGIRRYREVAPIIFKYYYSPDDVYERAAKELKTELI
soluble on expression in E. coli: not soluble

MKFCKKCVMPDTKPDLHFDEEGVCDACRSQEAKNQNINWQEREKEFFELIKKYKKHPVYDCVIGVSGGKDSTFQVVKMLELGLNPLCVCFEPSVPTKIGRKNLDNLNHLGVDLIHIKRDPKVYQKLAREAFIRTGDNEWQNHLGIFTSVPRIAVNFGVPLIIWGESPQIEYGGPASSKNKNILGREWLEEFGGLLGNRASDMLGVNGITEKDLFLYTYPSDEELQRVGVTGLFLGYYFKWDYKKILEISKKYGFLTLDHPVETTYENFENLDCYSNHVHDYLKYCKYGFGRATDNACLDIRLGYISREEGVRLAQKYDGKPPKKAIKKYLEFSGFSEEEFQKIVDSFTNKKIFKRDENGKFIRDYDGSLVRKDECVLK
soluble on expression in E. coli: not soluble

MGSSHHHHHHSSGLVPRGSHMSELLATYLLTEPGADTEKKAEQIATGLTVGSWTDLPLVKQEQMQKHKGRVIKVEEREGTAASEKQAVITIAYPEINFSQDIPALLTTVFGKLSLDGKIKLIDLHFSEAFKRALPGPKFGVYGIRKLLGEFERPLLMSIFKGVIGRDLSDIKEQLRQQALGGVDLIKDDEIFFETGLAPFETRIAEGKQILKETYEQTGHKTLYAVNLTGRTADLKDKARRAAELGADALLFNVFAYGLDVMQGLAEDPEIPVPIMAHPAVSGAFTSSPFYGFSHALLLGKLNRYCGADFSLFPSPYGSVALPRADALAIHEECVREDAFNQTFAVPSAGIHPGMVPLLMRDFGIDHIINAGGGVHGHPNGAQGGGRAFRAIIDAVLEAQPIDEKAEQCKDLKLALDKWGKAEAV
soluble on expression in E. coli: soluble

MTVKSQQQIIDSFKQANQDQLFQYYDSLTIDQQQEFIDQLSTIEEPAKLISTVEQAIQFSQTNSTSRNFTQLPNEQTASTLDLSKDILQNWTELGLKAIGNGEVAVLLMAGGQGTRLGSSAPKGCFNIELPSQKSLFQIQAEKILKIEQLAQQYLKSTKKPIINWYIMTSGPTRNATESFFIENNYFGLNSHQVIFFNQGTLPCFNLQGNKILLELKNSICQSPDGNGGLYKALKDNGILDDLNSKGIKHIHMYCVDNCLVKVADPIFIGFAIAKKFDLATKVVRKRDANESVGLIVLDQDNQKPCVIEYSEISQELANKKDPQDSSKLFLRAANIVNHYYSVEFLNKMIPKWISSQKYLPFHIAKKKIPSLNLENGEFYKPTEPNGIKLEQFIFDVFPSVELNKFGCLEVDRLDEFSPLKNADGAKNDTPTTCRNHYLERSSKWVIQNGGVIDNQGLVEVDSKTSYGGEGLEFVNGKHFKNGDII
soluble on expression in E. coli: soluble

MWRVVFDCEEAVRWLRQAKHTLESIRVDYEGGFYSWACFKANQAAEYSIKAVLRAAGLESFGHDLMALWRRARSLCQPLQEMEECIAVLNKLYLPPRYPDAWPGGAAPFENYTRRDAEEALECASRVYRAVEECLGEECEDS
soluble on expression in E. coli: soluble

HWCNIAGWPDFDTFLATMDHKHRKNIRQERAKVARSGVRIQSIHGDEATPIELKAMHHFYVNTFHQYGNAPALTLPFLTHLAKTIPRQLVLFMATLNGKLIGGSLCLRSAKTLYGRHWGGAALPGLHFETCYYQGIDYCLREGLTRFEPGAQGKHKIARG
soluble on expression in E. coli: not soluble

MKILAFETSTEACSVALHVDGAVRERFELAPRRHAELALPWAEQLLAEAGISRRQLDAIAVGRGPGAFSGVRLAIGIVQGIALALDLPVLAISTLQVLALRAPAEASHVLACIDARMGEVYAGLFERQGEALLTLGSEVVCAPEAVLLPQSTPQWAGVGTGLAAGEMPLQQRFAGRLSSVDAAALPHAADLLTLALPAALRGEGVAPERVEPAYLRDNVALTLVEQQAARAAKAAAVPR
soluble on expression in E. coli: soluble

MGSDKIHHHHHHMKADRLLEIVALLQNHEKLTTHQLVDHLHVSSRTILRDMDTLSALGIPIVSERGRAGGWKLMDHFRSQLSGMSMTELKALFILPSDKVLKDLGIPTKGRDIRLNMLSSLQGNRKHAVRPYLEKVYIDTGTWKPSKERMEEFNVVQQAVFEEKKLYIVYENAKGEQRERLISPLGLVAKGSAWYVVATVETGDIRNFKLSRIKDSKLVREPIVKPETFSLATYWNESKEQFVQTLPSYEATVLAHDSIIHRLTFTGKFVENIQVGHRDDEWVTVNLCFHDEQEITEYVLGFGGRMKLVTPKHLIGRIVQQASAVIQQYASDKEPTNETKEGL
soluble on expression in E. coli: not soluble

MAHHHHHHMLVRRSLSKKRSVIRGRNSRDLRVSSYIRVCTCTYVRNLCCRRLAYYDVCGESWSHARPFSPNSAMDYSLSVFRVLCPFVKTFFLFTLPCLTEGEGRVKSLIRWWEKKTCAEILMSSHAYLGLLRFICDLYTSFKGYVSRWHCPARRTAVLSCLSAAIGADGGVGPWLLLFVRAAVLRVLSLRQHPQTTQGEGRLARLVQPNQSGGHERHQQ
soluble on expression in E. coli: not soluble

MSLSWRLQTGSEKAELQELNARLYDYVCRVRELERENLLLEEELRSRLSREDRWAEDQALYAEEARSLRQQLDELNWSTALAEGERDALRRELLELQREGVEAGTARSRLDAELGAQRRELEEALGARAALEALLGRLETERRDLDAAHERQVRDLRARAASLTMHFRARATSPAAPPPRLRDVHDSYALLVAESWRESVQLYEDEVRELEQALRRGQESRLQAEDEARLCAQEADALRNQALELEQLRARLEDELLRMREEYGMQAEERQRVIDSLEDEKEALTLAMADRLRDYQELLQVKTGLSLEVATYRALLEGESNPEILIWTENIENVPQEPRNTSYRYTNSVLQRKNEKNLFPRREGHHHHHH
soluble on expression in E. coli: not soluble

MGSIEEVLLEERLIGYLDPGAEKVLARINRPSKIVSTSSCTGRITLIEGEAHWLRNGARVAYKTHHPISRSEVERVLRRGFTNLWLKVTGPILHLRVEGWQCAKSLLEAARRNGFKHSGVISIAEDSRLVIEIMSSQSMSVPLVMEGARIVGDDALDMLIEKANTILVESRIGLDTFSREVEELVECFAAALEHHHHHH
soluble on expression in E. coli: soluble

MSLSKLDIPLSIMQKSVVIRPGGRQEMDEHVAIETPYAIALNDRVIGSSMVLPVDLEEFGAGFLFGQGYIKKAEEIREILVCPQGRISVYADVENEEPREVIITSGCGGTGKIPKEMLEGEFAPLADYCLPFAEIKSFIREALHSSPLGPQTHCVHGCGLWNNGRLQVYHEDVGRHNAVDKVLGSILLGRASNNSAVYTTGRLTSDMVLKCARIGIPIIMSRTSPSSLGLALAKRSGATLVAYSRPERINVFNAPERILTEGHHHHHH
soluble on expression in E. coli: soluble
